Laboratory results: patent US20220389077A1, “ALLOGENEIC CELL COMPOSITIONS AND METHODS OF USE” (Poseida Therapeutics, Inc., priority 2018, published 2022)

What was measured:
Assay type in all cases: cell-based, human
[1] = test system: CAR molecule on the surface of T cells; experiment: Staining for surface expression of CAR after secondary expansion; details: DKO cells
Text: After secondary expansion, cells (Mock (WT T cells), WT CAR-T cells, DKO CAR-T cells, DKO CAR-T cells+CD2z CSR, and DKO CAR-T cells+CD28z CSR) were stained for the surface-expression of CAR and compared to control WT CAR-T cells and Mock T cells.

DKO CAR-T cells = experiment: Expansion of TCRb/b2M double-knockout (DKO) CAR-T cells after stimulation with agonist mAbs anti-CD2, anti-CD3 and anti-CD28; details: 16 day culture; CSR delivered in piggyBac transposon
Text: FIGS. 9A-9B are a series of plots showing that piggyBac® delivery of CSR enhances the expansion of TCRb/b2M double-knockout CAR-T cells. Pan T cells isolated from normal donor blood were genetically modified using the piggyBac® DNA modification system in combination with the Cas-CLOVER™ gene-editing system. Cells were electroporated in a single reaction with a transposon encoding a CAR, selection gene and a CSR (either CD28z or CD2z), an mRNA encoding the super piggyBac™ transposase enzyme, an mRNA encoding Cas-CLOVER™, and multiple guide RNA (gRNA) targeting TCRb and b2M in order to knockout the TCR and MHCI (double-knockout; DKO). The cells were subsequently stimulated with agonist mAbs anti-CD2, anti-CD3 and anti-CD28, and were later selected for genetic modification over the course of a 16 day culture period. At the end of the initial culture period all T cells expressed the CAR, indicating successful selection for genetically-modified cells (data not shown).

Pan T cells = experiment: Surface expression of CSR and cellular activation (FSC-A, CD69) after mRNA electroporation of T cells; details: for cellular activation (FSC-A, CD69): absence of exogenous stimulation; for surface expression by flow cytometry: two days after electroporation of 10 μg mRNA
Experimental: Pan T cells from normal blood donors were stimulated with anti-CD3/anti-CD28 beads in standard T cell culture media, then rested. These cells were then electroporated (BTX ECM 830 electroporator @ 500V for 700 μs) with 10 μg of mRNA encoding either CD28 CSR, CD2 CSR, or wild-type CD19 control. Two days later the electroporated cells were examined by flow cytometry for surface-expression of each molecule and data are shown as stacked histograms. In addition, cell size (FSC-A) and CD69 expression was evaluated as a possible indication of cellular activation above the Mock electroporated control cells.

purified DKO CAR-T cells = experiment: Re-stimulation and secondary expansion of purified DKO CAR-T cells, with or without IL7 and IL15; details: 14 day culture; re-stimulation
Experimental: After initial genetic modification and a first round of stimulation and expansion, cells from each group (Mock (WT CAR-T cells), DKO CAR-T cells, DKO CAR-T cells+CD2z CSR, and DKO CAR-T cells+CD28z CSR) were purified for TCR^−MHCI^− cells using magnetic beads. The purified cells were then re-stimulated using anti-CD2, anti-CD3, and anti-CD28 agonist mAbs. At the end of the 14 day culture period, TCR and MHCI expression (A) as well as magnitude of cell population expansion (B) was determined. After this secondary expansion, all purified DKO cells, including those expressing either CD2z or CD28z CSR, were still extremely pure for DKO cells (>98.8% DKO).
FIG. 11 is a graph showing that cytokine supplementation can further expand purified DKO CAR-T cells expressing CSR upon re-stimulation. After initial genetic modification and a first round of stimulation and expansion, cells expressing CSRs were purified for DKO cells using magnetic beads. The purified cells were then re-stimulated using anti-CD2, anti-CD3, and anti-CD28 agonist mAbs in the presence exogenous purified recombinant IL7 and IL15. At the end of the 14 day culture period, magnitude of cell population expansion was determined. After a secondary expansion, all purified DKO cells, including those expressing either CD2z or CD28z CSR, were still extremely pure for TCR^−MHCI^− cells (>98.8% double knockout (data not shown)). […]

Allo CAR-T cells = experiment: Expansion of Allo CAR-T cells with WT or mutant (D111H) CSR CD2z; details: up to 15-day culture; CSR stable or transient
Text: FIG. 24A is a bar graph showing that the delivery of CSR CD2z-D111H mutant enhances the expansion of Allo CAR-T cells. Pan T cells isolated from healthy donor blood were genetically modified using the piggyBac® DNA modification system in combination with the Cas-CLOVER™ gene-editing system (CC) for the production of allogeneic (Allo) CAR-T cells, or without CC gene-editing, as a control, for the production of autologous (Auto) CAR-T without a CSR (No CSR); auto CAR-T cells were produced by nucleofection of an mRNA encoding the super piggyBac™ transposase enzyme (SPB) and a transposon encoding a CAR, selection gene and a safety switch. […] Following EP, all cells were subsequently stimulated with a cocktail of agonist mAbs anti-CD2, anti-CD3 and anti-CD28, and were later selected for genetic modification over the course of up to a 15-day culture period using the selection gene. At the end of the initial culture period, all T cells expressed the CAR, indicating successful selection for genetically-modified cells (data not shown), and then all non-edited TCR-positive cells were depleted via negative selection to yield a population of Allo CAR-T cells that were >99% TCR-negative (data not shown).

Row | Molecule | surface expression of CAR [1] | expansion of the cells in comparison to DKO CAR-T cells alone (DKO CAR-T cells) | cellular activation (FSC-A, CD69) (Pan T cells) | surface expression by flow cytometry (Pan T cells) | magnitude of cell population expansion compared to those not expressing either CSR (purified DKO CAR-T cells) | peak expansion of Allo CAR-T cells compared to Allo CAR-T cells produced without a CSR (Allo CAR-T cells)
1 | CD28z CSR: chimeric stimulatory receptor: CD28 signal peptide, extracellular, transmembrane and cytoplasmic domains with CD3z intracellular domain (SEQ ID NO: 17060) | does not have a significant impact | at least a two fold expansion | did not intrinsically activate the cells | Increased surface expression | enhanced expansion | –
2 | CD2z CSR: chimeric stimulatory receptor: CD2 signal peptide, extracellular, transmembrane and cytoplasmic domains with CD3z intracellular domain (SEQ ID NO: 17062) (protein) MSFPCKFVASFLLIFNVSSKGAVSKEITNALETWGALGQDINLDIPSFQMSDDIDDIKWEKTSDKKKIAQFRKEKETFKEKDTYKLFKNGTLKIKHLKTDDQDIYKVSIYDTKGKNVLEKIFDLKIQERVSKPKISWTCINTTLTCEVMNGTDPELNLYQDGKHLKLSQRVITHKWTTSLSAKFKCTAGNKVSKESSVEPVSCPEKGLDIYLIIGICGGGSLLMVFVALLVFYITKRKKQRSRRNDEELETRAHRVATEERGRKPHQIPASTPQNPATSQHPPPPPGHRSQAPSHRPPPPGHRVQHQPQKRPPAPSGTQVHQQKGPPLPRPRVQPKPPHGAAENSLSPSSNRVKFSRSADAPAYKQGQNQLYNELNLGRREEYDVLDKRRGRDPEMGGKPRRKNPQEGLYNELQKDKMAEAYSEIGMKGERRRGKGHDGLYQGLSTATKDTYDALHMQALPPR | does not have a significant impact | at least a two fold expansion | did not intrinsically activate the cells | Increased surface expression | enhanced expansion | a greater degree of expansion
